Measured values from article PMC3935945, “Insight into Highly Conserved H1 Subtype-Specific Epitopes in Influenza Virus Hemagglutinin” (PLoS ONE, 2014).

Experiments:
Test in all cases: ELISA
[1] = target: T1, recombinant hemagglutinin (HA) of 2009 pandemic virus A/Korea/01/2009 (KR01) (Influenza A virus A/Korea/01/2009 (H1N1), strain); settings: both partners purified
T1 construct: also called KR01 HA; H1N1 HA

[2] = target: T2, hemagglutinin (HA) of H1N1 A/Thailand/CU44/2006 (CU44) (Influenza A virus A/Thailand/CU44/2006 …, UniProt A7LI25, strain); settings: both partners purified
T2 construct: also called CU44 HA

[3] = target: T3, HA from A/California/07/2009(H1N1) (Influenza A virus A/California/07/2009 …, UniProt C3W5X2, strain)
T3 construct: also called CA07

[4] = target: T4, HA from A/Brisbane/59/2007(H1N1) (Influenza A virus A/Brisbane/59/2007 …, UniProt D5F1Q8, strain)
T4 construct: also called BR59

[5] = target: T5, HA from A/California/04/2009(H1N1) (Influenza A virus A/California/04/2009 …, UniProt C3W5S1, strain)
T5 construct: also called CA04

Measured: binding result

B1: H1-specific monoclonal antibody GC0587 (antibody, V domains shown)
VH: VKLQQSGGGVVQPGGSLRLSCAASGFTFSDYDMSWIRQAPGKGLEWVSGILGGSERSYYRDSVKGRFTISRDNSRKTLYLQMNSLRAEDTAVYYCARHGSPGYTLYAWDYWGQGTMVTVSS
VL: DIQMTQSPASLAVSPGQRATITCRASESVSNYGINFINWFQQKPGQPPKLLIYTASNKGTGVPARFSGSGSGTDFTLTINPVEAEDTANYFCQQTKEVPYTFGGGTKLEIK
notes: copies: 2 + 2
binds: all assays above

B2: H1-specific monoclonal antibody GC0757 (antibody, V domains shown)
VH: VKLQESGAVVQPGGSLRLSCAASGFTGSDYDMSWIRQAPGKGLEWVSGILGGSERSYYRDSVKGRSTISRDNSRKTLYLEMNSLRAEDTAVYYCARHSWGAYVQYGMDGWGQGTTVTVSS
VL: DIQMTQSPASLAVSPGQRATITCRASESVSNYGINFINWFQQKPGQPPKLLIYTASNKGTGVPARFSGSGSGTDFTLTINPVEAEDTANYFCQQTKEVPYGTFGGTKLEIK
notes: copies: 2 + 2
binds: all assays above
